What follows are sequences tested on Escherichia coli TOP10 (assay: shrunken log2 fold change of peptide-encoding DNA abundance (4.5 h post-induction vs induction); higher = less antimicrobial activity (less host growth inhibition)). Settings: time post-induction: 4.5 h; library: site-saturation at positions 5, 18, 19, 20.
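Further: peptides expressed intracellularly from a pBAD plasmid library in pooled LB shake-flask culture, induced with 0.3% L-arabinose, DNA abundance read by NGS, three biological replicates, DESeq2 with apeglm shrinkage.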

| Sequence | shrunken log2 fold change |
| --- | --- |
| RRIRARPPRLPRPRPRPNPPPRP | 0.458 |
| RRIRMRPPRLPRPRPRPIFRPRP | 0.185 |
| RRIRRRPPRLPRPRPRPQLMPRP | 0.247 |
| RRIRRRPPRLPRPRPRPPNSPRP | -0.0871 |
| RRIRLRPPRLPRPRPRPVDWPRP | 0.252 |
| RRIRERPPRLPRPRPRPGAYPRP | -0.243 |
| RRIRDRPPRLPRPRPRPDPTPRP | 0.0932 |
| RRIRWRPPRLPRPRPRPVQRPRP | 0.257 |
| RRIRSRPPRLPRPRPRPMGQPRP | 0.0126 |
| RRIRPRPPRLPRPRPRPYAQPRP | -0.478 |
| RRIRGRPPRLPRPRPRPSGPPRP | -0.0342 |
| RRIRYRPPRLPRPRPRPAQNPRP | -0.0465 |
| RRIRIRPPRLPRPRPRPDCDPRP | -0.242 |
| RRIRCRPPRLPRPRPRPSFGPRP | -0.496 |
| RRIRQRPPRLPRPRPRPTNNPRP | -0.547 |
| RRIRYRPPRLPRPRPRPCVIPRP | 0.0735 |
| RRIRGRPPRLPRPRPRPEFDPRP | 1.8 |
| RRIRLRPPRLPRPRPRPLFCPRP | -0.142 |
| RRIRWRPPRLPRPRPRPVMIPRP | 0.0436 |
| RRIRDRPPRLPRPRPRPSSVPRP | -0.0994 |
| RRIRARPPRLPRPRPRPWRIPRP | -0.0489 |
| RRIRGRPPRLPRPRPRPYCDPRP | 0.226 |

| Sequence | shrunken log2 fold change |
| --- | --- |
| RRIRNRPPRLPRPRPRPMRCPRP | -0.123 |
| RRIRPRPPRLPRPRPRPGTFPRP | -0.226 |
| RRIRCRPPRLPRPRPRPMYEPRP | -0.264 |
| RRIRCRPPRLPRPRPRPPISPRP | -0.38 |
| RRIRCRPPRLPRPRPRPCPFPRP | -0.332 |
| RRIRFRPPRLPRPRPRPNQRPRP | 0.269 |
| RRIRMRPPRLPRPRPRPCMQPRP | -0.143 |
| RRIRRRPPRLPRPRPRPFGWPRP | 0.271 |
| RRIRVRPPRLPRPRPRPDTSPRP | -0.124 |
| RRIRDRPPRLPRPRPRPCGIPRP | 0.0258 |
| RRIRMRPPRLPRPRPRPIPEPRP | -0.0403 |
| RRIRTRPPRLPRPRPRPVGIPRP | -0.0568 |
| RRIRERPPRLPRPRPRPKSQPRP | -0.0879 |
| RRIRQRPPRLPRPRPRPSFEPRP | -0.213 |
| RRIRNRPPRLPRPRPRPLLMPRP | -0.421 |
| RRIRCRPPRLPRPRPRPPSNPRP | -0.416 |
| RRIRPRPPRLPRPRPRPGVHPRP | -0.0724 |
| RRIRTRPPRLPRPRPRPGMGPRP | 0.104 |
| RRIRIRPPRLPRPRPRPFDHPRP | -0.225 |
| RRIRYRPPRLPRPRPRPAWQPRP | 0.0499 |
| RRIRRRPPRLPRPRPRPWLIPRP | -0.319 |
| RRIRSRPPRLPRPRPRPADYPRP | -0.455 |

| Sequence | shrunken log2 fold change |
| --- | --- |
| RRIRLRPPRLPRPRPRPSYHPRP | -0.686 |
| RRIRWRPPRLPRPRPRPNKFPRP | -0.369 |
| RRIRKRPPRLPRPRPRPAASPRP | 0.593 |
| RRIRTRPPRLPRPRPRPATYPRP | -0.169 |
| RRIRMRPPRLPRPRPRPIGPPRP | 0.069 |
| RRIRFRPPRLPRPRPRPEANPRP | 0.666 |
| RRIRGRPPRLPRPRPRPFCDPRP | 0.456 |
| RRIRARPPRLPRPRPRPHMFPRP | 0.0892 |
| RRIRMRPPRLPRPRPRPYMHPRP | -0.0641 |
| RRIRVRPPRLPRPRPRPKITPRP | -0.524 |
| RRIRFRPPRLPRPRPRPFAGPRP | 0.0728 |
| RRIRYRPPRLPRPRPRPGPAPRP | 0.0198 |
| RRIRVRPPRLPRPRPRPKQKPRP | -0.0521 |
| RRIRARPPRLPRPRPRPKSKPRP | 0.257 |
| RRIRTRPPRLPRPRPRPFWWPRP | 0.299 |
| RRIRGRPPRLPRPRPRPMQGPRP | 0.0711 |
| RRIRVRPPRLPRPRPRPTLGPRP | 0.213 |
| RRIRLRPPRLPRPRPRPDHPPRP | -0.123 |
| RRIRNRPPRLPRPRPRPVWLPRP | 0.0895 |
| RRIRDRPPRLPRPRPRPKTQPRP | -0.0316 |
| RRIRRRPPRLPRPRPRPQCIPRP | -0.0103 |
| RRIRGRPPRLPRPRPRPVYWPRP | 1.38 |

| Sequence | shrunken log2 fold change |
| --- | --- |
| RRIRQRPPRLPRPRPRPGRIPRP | -0.123 |
| RRIRKRPPRLPRPRPRPQEDPRP | 0.0977 |
| RRIRSRPPRLPRPRPRPWNAPRP | -0.443 |
| RRIRCRPPRLPRPRPRPWCGPRP | -0.288 |
| RRIRFRPPRLPRPRPRPFFKPRP | -0.251 |
| RRIRLRPPRLPRPRPRPYFGPRP | -0.218 |
| RRIRIRPPRLPRPRPRPVLSPRP | -0.311 |
| RRIRDRPPRLPRPRPRPLMTPRP | 0.195 |
| RRIRYRPPRLPRPRPRPKGIPRP | -0.228 |
| RRIRKRPPRLPRPRPRPVQFPRP | -0.0421 |
| RRIRVRPPRLPRPRPRPLFGPRP | -0.104 |
| RRIRTRPPRLPRPRPRPHLHPRP | -0.844 |
| RRIRHRPPRLPRPRPRPIVIPRP | -0.158 |
| RRIRDRPPRLPRPRPRPSQEPRP | 0.111 |
| RRIRDRPPRLPRPRPRPMTWPRP | 0.000751 |
| RRIRFRPPRLPRPRPRPTPCPRP | 0.107 |
| RRIRYRPPRLPRPRPRPPYDPRP | -0.553 |
| RRIRYRPPRLPRPRPRPYYTPRP | -0.0958 |
| RRIRMRPPRLPRPRPRPPVRPRP | 0.458 |
| RRIRFRPPRLPRPRPRPNCWPRP | -0.358 |
| RRIRNRPPRLPRPRPRPRPSPRP | 0.443 |
| RRIRWRPPRLPRPRPRPMKIPRP | -0.0129 |

| Sequence | shrunken log2 fold change |
| --- | --- |
| RRIRPRPPRLPRPRPRPYPYPRP | -0.124 |
| RRIRERPPRLPRPRPRPQPIPRP | 0.0322 |
| RRIRERPPRLPRPRPRPMYQPRP | -0.0801 |
| RRIRTRPPRLPRPRPRPRHFPRP | -0.085 |
| RRIRKRPPRLPRPRPRPDVMPRP | -0.0462 |
| RRIRSRPPRLPRPRPRPGAEPRP | 0.606 |
| RRIRRRPPRLPRPRPRPATGPRP | 0.222 |
| RRIRTRPPRLPRPRPRPNIEPRP | 0.105 |
| RRIRHRPPRLPRPRPRPLLKPRP | -0.013 |
| RRIRHRPPRLPRPRPRPKIEPRP | 0.0371 |
| RRIRRRPPRLPRPRPRPMKDPRP | 0.19 |
| RRIRGRPPRLPRPRPRPKVTPRP | 0.29 |
| RRIRIRPPRLPRPRPRPHEPPRP | -0.129 |
| RRIRDRPPRLPRPRPRPCYQPRP | -0.0177 |
| RRIRCRPPRLPRPRPRPFFAPRP | 0.216 |
| RRIRYRPPRLPRPRPRPTYDPRP | -0.73 |
| RRIRVRPPRLPRPRPRPMWVPRP | 0.0736 |
| RRIRARPPRLPRPRPRPVTDPRP | -0.0398 |
| RRIRRRPPRLPRPRPRPKLSPRP | 0.262 |
| RRIRDRPPRLPRPRPRPCWTPRP | 0.122 |
| RRIRPRPPRLPRPRPRPCILPRP | -1.04 |
